Laboratory results as given in US20240316154A1 (Eli Lilly, published 2024).
Numbering of substitutions follows the chain as printed. Names may count otherwise. Read-outs that look alike come from different tables or passages of the source.

Assays:
Human serum albumin [1] = molecular target: T1, Human serum albumin (human, UniProt P02768 25-609); test: SPR, SA on chip, VHH 300 nM, 25 C
T1 construct: bought; immobilised on a CM5 chip by amine coupling; also called Human SA
Protocol: (§1) Immobilization of SA to a Series S Sensor Chip CM5 surface is performed according to the manufacturer's instructions (amine coupling kit BR-1000-50). […] Human SA is obtained from Sigma Aldrich (St. Louis, MO; Cat. No. A8763). […] Mouse SA is obtained from Sigma Aldrich (Cat. No. A3559). Rat SA is obtained from Sigma Aldrich (Cat. No. A4538). Pig SA is obtained from Sigma Aldrich (Cat. No. A4414). […] Cow SA is obtained from Sigma Aldrich (Cat. No. A7030). The various SAs are covalently immobilized through free amines onto a carboxymethyl dextran-coated sensor chip CM5 targeting a surface density of average approximately 77 (58-98) RU. Excess reactive groups on the surfaces (flow cell 1 and 2) are deactivated by injecting 70 μL of 1 M ethanolamine hydrochloride-NaOH, pH 8.5, at 10 μL/min.
(§2) VHH moieties are diluted in HBS-EP+buffer (10 mM HEPES, pH 7.6, 150 mM NaCl, 3 mM EDTA, and 0.05% Polysorbate 20) at concentrations of 300 nM. 150 μL of sample is individually injected sequentially across the immobilized SAs surface and is dissociated for 600 sec at a flow rate of 50 L/min at 25 C. […] The resulting sensorgrams are analyzed using Biacore 8K Insight Evaluation Software (version 2.0.15.12933) to calculate the dissociation rate (kd).

[2] = molecular target: T2, Cynomolgus monkey serum albumin (cynomolgus monkey, UniProt A2V9Z4 25-608); test: SPR, SA on chip, VHH 300 nM, 25 C
T2 construct: bought; immobilised on a CM5 chip by amine coupling; also called Cyno SA
Protocol: as §1, §2

Mouse serum albumin [3] = molecular target: T3, Mouse serum albumin (mouse, UniProt P07724 25-608); test: SPR, SA on chip, VHH 300 nM, 25 C
T3 construct: bought; immobilised on a CM5 chip by amine coupling; also called Mouse SA
Protocol: as §1, §2

Rat serum albumin [4] = molecular target: T4, Rat serum albumin (rat, UniProt P02770 25-608); test: SPR, SA on chip, VHH 300 nM, 25 C
T4 construct: bought; immobilised on a CM5 chip by amine coupling; also called Rat SA
Protocol: as §1, §2

Pig serum albumin [5] = molecular target: T5, Pig serum albumin (pig, UniProt P08835 25-607); test: SPR, SA on chip, VHH 300 nM, 25 C
T5 construct: bought; immobilised on a CM5 chip by amine coupling; also called Pig SA
Protocol: as §1, §2

Dog serum albumin [6] = molecular target: T6, Dog serum albumin (dog, UniProt P49822 25-608); test: SPR, SA on chip, VHH 300 nM, 25 C
T6 construct: bought; immobilised on a CM5 chip by amine coupling; also called Dog SA
Protocol: as §1, §2

Cow serum albumin [7] = molecular target: T7, Cow serum albumin (cow, UniProt P02769 25-607); test: SPR, SA on chip, VHH 300 nM, 25 C
T7 construct: bought; immobilised on a CM5 chip by amine coupling; also called Cow SA
Protocol: as §1, §2

[8] = molecular target: T2, Cynomolgus monkey serum albumin; test: SPR, SA on chip, 25 C
Mouse serum albumin [9] = molecular target: T3, Mouse serum albumin; test: SPR, SA on chip, 25 C
Rat serum albumin [10] = molecular target: T4, Rat serum albumin; test: SPR, SA on chip, 25 C
Pig serum albumin [11] = molecular target: T5, Pig serum albumin; test: SPR, SA on chip, 25 C
Dog serum albumin [12] = molecular target: T6, Dog serum albumin; test: SPR, SA on chip, 25 C
Cow serum albumin [13] = molecular target: T7, Cow serum albumin; test: SPR, SA on chip, 25 C
Rabbit serum albumin [14] = molecular target: T8, Rabbit serum albumin (rabbit, UniProt P49065 25-608); test: SPR, SA on chip, 25 C
T8 construct: bought; immobilised on a CM5 chip by amine coupling; also called Rabbit SA
Protocol: (§3) Human SA is obtained from Sigma Aldrich (Cat. No. A8763). […] Mouse SA is obtained from Sigma Aldrich (Cat. No. A3139). Rat SA is obtained from Sigma Aldrich (Cat. No. A4538). Pig SA is obtained from Sigma Aldrich (Cat. No. A4414). […] Cow SA is obtained from Sigma Aldrich (Cat. No. A7030). […] Excess reactive groups on the surfaces (flow cell 1 and 2) are deactivated by injecting 70 μl of 1 M Ethanolamine hydrochloride-NaOH pH 8.5.
(§4) 180 μl of sample are individually injected sequentially across the immobilized SAs on the chip's surface and dissociated for 600 sec at 60 μl/min flow rate at 25° C.

[15] = molecular target: T9, human CNTF receptor (CNTFR) on IMR-32 cells (human, UniProt P26992 23-342); test: cell-based or functional assay
T9 sequence (looked up): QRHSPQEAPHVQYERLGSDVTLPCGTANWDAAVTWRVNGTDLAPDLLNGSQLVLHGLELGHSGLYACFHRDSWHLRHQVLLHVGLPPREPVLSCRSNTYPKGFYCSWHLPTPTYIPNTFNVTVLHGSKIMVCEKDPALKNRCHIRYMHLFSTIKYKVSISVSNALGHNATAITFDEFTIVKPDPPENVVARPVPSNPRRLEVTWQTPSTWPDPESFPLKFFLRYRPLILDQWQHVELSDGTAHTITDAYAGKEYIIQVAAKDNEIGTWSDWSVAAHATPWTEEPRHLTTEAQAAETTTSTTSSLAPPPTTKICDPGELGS

Human serum albumin [16] = molecular target: T1, Human serum albumin; test: SPR, SA on chip, 1:1 fit, 25 C
Protocol: as §3, §4

[17] = molecular target: T2, Cynomolgus monkey serum albumin; test: SPR, SA on chip, 1:1 fit, 25 C
Protocol: as §3, §4

Mouse serum albumin [18] = molecular target: T3, Mouse serum albumin; test: SPR, SA on chip, 1:1 fit, 25 C
Protocol: as §3, §4

Rat serum albumin [19] = molecular target: T4, Rat serum albumin; test: SPR, SA on chip, 1:1 fit, 25 C
Protocol: as §3, §4

Pig serum albumin [20] = molecular target: T5, Pig serum albumin; test: SPR, SA on chip, 1:1 fit, 25 C
Protocol: as §3, §4

Dog serum albumin [21] = molecular target: T6, Dog serum albumin; test: SPR, SA on chip, 1:1 fit, 25 C
Protocol: as §3, §4

Cow serum albumin [22] = molecular target: T7, Cow serum albumin; test: SPR, SA on chip, 1:1 fit, 25 C
Protocol: as §3, §4

Rabbit serum albumin [23] = molecular target: T8, Rabbit serum albumin; test: SPR, SA on chip, 25 C; remark: listed apart in the source
Protocol: as §3, §4

Human serum albumin [24] = molecular target: T1, Human serum albumin; test: SPR, SA on chip, 1:1 fit, 25 C; remark: listed apart in the source
Protocol: as §3, §4

[25] = molecular target: T2, Cynomolgus monkey serum albumin; test: SPR, SA on chip, 1:1 fit, 25 C; remark: listed apart in the source
Protocol: as §3, §4

Mouse serum albumin [26] = molecular target: T3, Mouse serum albumin; test: SPR, SA on chip, 1:1 fit, 25 C; remark: listed apart in the source
Protocol: as §3, §4

Rat serum albumin [27] = molecular target: T4, Rat serum albumin; test: SPR, SA on chip, 1:1 fit, 25 C; remark: listed apart in the source
Protocol: as §3, §4

Pig serum albumin [28] = molecular target: T5, Pig serum albumin; test: SPR, SA on chip, 1:1 fit, 25 C; remark: listed apart in the source
Protocol: as §3, §4

Dog serum albumin [29] = molecular target: T6, Dog serum albumin; test: SPR, SA on chip, 1:1 fit, 25 C; remark: listed apart in the source
Protocol: as §3, §4

Cow serum albumin [30] = molecular target: T7, Cow serum albumin; test: SPR, SA on chip, 1:1 fit, 25 C; remark: listed apart in the source
Protocol: as §3, §4

B1: VHH moiety 8 (MC6.1C22-G26Y) (VHH)
VHH: EVQLLESGGGLVQPGGSLRLSCAASYRYIDETAVAWFRQAPGKEREFVAGIGGGVDITYYADSVKGRFTISRDNSKNTLYLQMNSLRPEDTAVYYCAARPGRPLITSKVADLYPYWGQGTLVTVSS
Q: Which results are given for B1?
A: koff (Human serum albumin [1]): 0.001 s⁻¹; koff [2]: 0.003 s⁻¹; koff (Mouse serum albumin [3]): 0.0032 s⁻¹; koff (Rat serum albumin [4]): 0.0075 s⁻¹; koff (Pig serum albumin [5]): 0.0092 s⁻¹; koff (Dog serum albumin [6]): 0.0022 s⁻¹; koff (Cow serum albumin [7]): 0.015 s⁻¹

B2: VHH moiety 14 (MC6.1C22-Y59Q) (VHH)
VHH: B1 VHH with Y26G, Y59Q
Q: Does B2 bind [8]?
A: no binding (tested: 300 nM)

Q: Does B2 bind (Mouse serum albumin [9])?
A: no binding (tested: 300 nM)

Q: Does B2 bind (Rat serum albumin [10])?
A: no binding (tested: 300 nM)

Q: Does B2 bind (Pig serum albumin [11])?
A: no binding (tested: 300 nM)

Q: Does B2 bind (Dog serum albumin [12])?
A: no binding (tested: 300 nM)

Q: Does B2 bind (Cow serum albumin [13])?
A: no binding (tested: 300 nM)

Q: And the koff (Human serum albumin [1])?
A: 0.013 s⁻¹

B3: VHH moiety 17 (MC6.1C22-R102K) (VHH)
VHH: B1 VHH with Y26G, R102K
Q: Which results are given for B3?
A: koff (Human serum albumin [1]): 0.0015 s⁻¹; koff [2]: 0.0022 s⁻¹; koff (Mouse serum albumin [3]): 0.01 s⁻¹; koff (Rat serum albumin [4]): 0.0081 s⁻¹; koff (Pig serum albumin [5]): 0.013 s⁻¹; koff (Dog serum albumin [6]): 0.0082 s⁻¹; koff (Cow serum albumin [7]): 0.015 s⁻¹

B4: VHH moiety 27 (MC6.1C22-S107E) (VHH)
VHH: B1 VHH with Y26G, S107E
Q: Does B4 bind [8]?
A: no binding (tested: 300 nM)

Q: Does B4 bind (Mouse serum albumin [9])?
A: no binding (tested: 300 nM)

Q: Does B4 bind (Rat serum albumin [10])?
A: no binding (tested: 300 nM)

Q: Does B4 bind (Pig serum albumin [11])?
A: no binding (tested: 300 nM)

Q: Does B4 bind (Dog serum albumin [12])?
A: no binding (tested: 300 nM)

Q: Does B4 bind (Cow serum albumin [13])?
A: no binding (tested: 300 nM)

Q: And the koff (Human serum albumin [1])?
A: 0.014 s⁻¹

B5: VHH moiety 26 (MC6.1C22-L104T) (VHH)
VHH: B1 VHH with Y26G, L104T
Q: Does B5 bind [8]?
A: no binding (tested: 300 nM)

Q: Does B5 bind (Mouse serum albumin [9])?
A: no binding (tested: 300 nM)

Q: Does B5 bind (Rat serum albumin [10])?
A: no binding (tested: 300 nM)

Q: Does B5 bind (Pig serum albumin [11])?
A: no binding (tested: 300 nM)

Q: Does B5 bind (Dog serum albumin [12])?
A: no binding (tested: 300 nM)

Q: Does B5 bind (Cow serum albumin [13])?
A: no binding (tested: 300 nM)

B6: VHH-based fusion of Example 1, VHH fusion 1 (CNTF-(G4Q)5-MC6.1C22.43) (other)
chain: MAFTEHSPLTPHRRDLASRSIWLARKIRSDLTALTESYVKHQGLNKNINLDSADGMPVASTDRWSELTEAERLQENLQAYRTFHVLLARLLEDQQVHFTPTEGDFHQAIHTLLLQVAAFAYQIEELMILLEYKIPRNEADGMPINVGDGGLFEKKLWGLKVLQELSQWTVRSIHDLRFISSHQTGGGGGQGGGGQGGGGQGGGGQGGGGQEVQLLESGGGLVQPGGSLRLSCAASGRYIDETAVAWFRQAPGKEREFVAGIGGGVDITYYADSVKGRFTISRDNSKNTLYLQMNSLRPEDTAVYYCAARPGRPLITSKVADLYPYWGQGTLVTVSSPP
notes: also called Compound 1; CNTF-VHH fusion
Q: Does B6 bind (Rabbit serum albumin [14])?
A: no binding (tested: up to 1000 nM)

Q: What about the “hCNTFR EC50 pM GeoMean (pSTAT3 in IMR-32 cells)” value [15] of the same binder?
A: 7.09 pM

Q: And the Kd (Human serum albumin [16])?
A: 3.2 nM

Q: And the koff (Human serum albumin [16])?
A: 0.00024 s⁻¹

Q: And the kon (Human serum albumin [16])?
A: 76000 M⁻¹ s⁻¹

Q: And the Kd [17]?
A: 13 nM

Q: What about the koff [17] of the same binder?
A: 0.00086 s⁻¹

Q: What about the kon [17] of the same binder?
A: 68000 M⁻¹ s⁻¹

Q: What about the Kd (Mouse serum albumin [18]) of the same binder?
A: 100 nM

Q: And the koff (Mouse serum albumin [18])?
A: 0.0082 s⁻¹

Q: What about the kon (Mouse serum albumin [18]) of the same binder?
A: 81000 M⁻¹ s⁻¹

Q: And the Kd (Rat serum albumin [19])?
A: 83 nM

Q: What about the koff (Rat serum albumin [19]) of the same binder?
A: 0.0063 s⁻¹

Q: What about the kon (Rat serum albumin [19]) of the same binder?
A: 75000 M⁻¹ s⁻¹

Q: What about the Kd (Pig serum albumin [20]) of the same binder?
A: 190 nM

Q: And the koff (Pig serum albumin [20])?
A: 0.011 s⁻¹

Q: And the kon (Pig serum albumin [20])?
A: 58000 M⁻¹ s⁻¹

Q: And the Kd (Dog serum albumin [21])?
A: 40 nM

Q: And the koff (Dog serum albumin [21])?
A: 0.0032 s⁻¹

Q: And the kon (Dog serum albumin [21])?
A: 79000 M⁻¹ s⁻¹

Q: What about the Kd (Cow serum albumin [22]) of the same binder?
A: 820 nM

Q: What about the koff (Cow serum albumin [22]) of the same binder?
A: 0.074 s⁻¹

Q: And the kon (Cow serum albumin [22])?
A: 91000 M⁻¹ s⁻¹

B7: VHH-based fusion of Example 2, VHH fusion 2 (MC6.1C22-(G4Q)5-CNTF) (other)
chain: EVQLLESGGGLVQPGGSLRLSCAASGRYIDETAVAWFRQAPGKEREFVAGIGGGVDITYYADSVKGRFTISRDNSKNTLYLQMNSLRPEDTAVYYCAARPGRPLITSKVADLYPYWGQGTLVTVSSGGGGQGGGGQGGGGQGGGGQGGGGQMAFTEHSPLTPHRRDLASRSIWLARKIRSDLTALTESYVKHQGLNKNINLDSADGMPVASTDRWSELTEAERLQENLQAYRTFHVLLARLLEDQQVHFTPTEGDFHQAIHTLLLQVAAFAYQIEELMILLEYKIPRNEADGMPINVGDGGLFEKKLWGLKVLQELSQWTVRSIHDLRFISSHQTG
notes: also called Compound 2; VHH-CNTF fusion
Q: Does B7 bind (Rabbit serum albumin [23])?
A: no binding (tested: up to 1000 nM)

Q: And the “hCNTFR EC50 pM GeoMean (pSTAT3 in IMR-32 cells)” value [15]?
A: 8.39 pM

Q: And the Kd (Human serum albumin [24])?
A: 0.58 nM

Q: What about the koff (Human serum albumin [24]) of the same binder?
A: 0.00025 s⁻¹

Q: And the kon (Human serum albumin [24])?
A: 430000 M⁻¹ s⁻¹

Q: And the Kd [25]?
A: 1.2 nM

Q: What about the koff [25] of the same binder?
A: 0.0006 s⁻¹

Q: What about the kon [25] of the same binder?
A: 500000 M⁻¹ s⁻¹

Q: And the Kd (Mouse serum albumin [26])?
A: 8.8 nM

Q: And the koff (Mouse serum albumin [26])?
A: 0.0042 s⁻¹

Q: What about the kon (Mouse serum albumin [26]) of the same binder?
A: 480000 M⁻¹ s⁻¹

Q: And the Kd (Rat serum albumin [27])?
A: 6.1 nM

Q: What about the koff (Rat serum albumin [27]) of the same binder?
A: 0.003 s⁻¹

Q: And the kon (Rat serum albumin [27])?
A: 490000 M⁻¹ s⁻¹

Q: What about the Kd (Pig serum albumin [28]) of the same binder?
A: 19 nM

Q: And the koff (Pig serum albumin [28])?
A: 0.0057 s⁻¹

Q: What about the kon (Pig serum albumin [28]) of the same binder?
A: 300000 M⁻¹ s⁻¹

Q: What about the Kd (Dog serum albumin [29]) of the same binder?
A: 3.7 nM

Q: What about the koff (Dog serum albumin [29]) of the same binder?
A: 0.0017 s⁻¹

Q: What about the kon (Dog serum albumin [29]) of the same binder?
A: 460000 M⁻¹ s⁻¹

Q: What about the Kd (Cow serum albumin [30]) of the same binder?
A: 110 nM

Q: And the koff (Cow serum albumin [30])?
A: 0.052 s⁻¹

Q: What about the kon (Cow serum albumin [30]) of the same binder?
A: 460000 M⁻¹ s⁻¹
